Measurements from paper PMC3753931.

T1: GST-Xl-dsRBD (XlrbpA dsRBD2) (Xenopus laevis) (UniProt Q91836)
T1 sequence: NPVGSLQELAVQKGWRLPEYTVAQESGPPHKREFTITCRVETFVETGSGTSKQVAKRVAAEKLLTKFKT

T2: GST-Xl-dsRBD (XlrbpA dsRBD2) (Xenopus laevis, UniProt Q91836 112-180)
T2 sequence: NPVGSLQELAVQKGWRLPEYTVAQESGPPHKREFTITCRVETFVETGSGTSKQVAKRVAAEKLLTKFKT

B1: 21blunt (dsRNA)
RNA 1: AAGUCACAUUGCCCAAGUCUC
RNA 2: GAGACUUGGGCAAUGUGACUU

Assays:
[1] = molecular target: T1, GST-Xl-dsRBD (XlrbpA dsRBD2) (Xenopus laevis); experiment: EMSA; conditions: scale: fold higher affinity than P1
[2] = molecular target: T2, GST-Xl-dsRBD (XlrbpA dsRBD2); experiment: EMSA

| Molecule | binding signal [1] | binding result [2] |
| --- | --- | --- |
| 130-bp dsRNA | 30 | – |
| 30-bp dsRNA | 30 | – |
| 70-bp dsRNA | 30 | – |
| 50-bp dsRNA | 30 | – |
| B1 | – | binds |
